Publication PMC7154858, “Transcriptional and Biochemical Characterization of Cytosolic Pyruvate Kinases in Arabidopsis thaliana” (Plants, 2020)

T1: cytosolic pyruvate kinase 2 (cPK2, At5g56350) (Arabidopsis thaliana) (UniProt Q9FM97)
T1 sequence: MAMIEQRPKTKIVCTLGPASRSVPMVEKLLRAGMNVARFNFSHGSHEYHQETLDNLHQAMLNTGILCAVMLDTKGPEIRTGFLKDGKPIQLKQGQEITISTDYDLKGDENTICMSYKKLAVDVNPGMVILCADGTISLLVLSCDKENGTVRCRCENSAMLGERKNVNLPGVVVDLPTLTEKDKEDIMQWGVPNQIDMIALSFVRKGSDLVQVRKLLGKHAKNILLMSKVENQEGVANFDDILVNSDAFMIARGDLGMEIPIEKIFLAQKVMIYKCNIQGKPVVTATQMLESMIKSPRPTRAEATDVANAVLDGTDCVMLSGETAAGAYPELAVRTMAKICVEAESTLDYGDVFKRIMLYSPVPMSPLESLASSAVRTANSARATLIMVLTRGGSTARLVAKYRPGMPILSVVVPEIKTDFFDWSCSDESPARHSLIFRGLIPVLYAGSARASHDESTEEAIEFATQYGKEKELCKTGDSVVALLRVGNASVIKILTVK

T2: cytosolic pyruvate kinase 4 (cPK4, At2g36580) (Arabidopsis thaliana) (UniProt Q9SJQ0)
T2 sequence: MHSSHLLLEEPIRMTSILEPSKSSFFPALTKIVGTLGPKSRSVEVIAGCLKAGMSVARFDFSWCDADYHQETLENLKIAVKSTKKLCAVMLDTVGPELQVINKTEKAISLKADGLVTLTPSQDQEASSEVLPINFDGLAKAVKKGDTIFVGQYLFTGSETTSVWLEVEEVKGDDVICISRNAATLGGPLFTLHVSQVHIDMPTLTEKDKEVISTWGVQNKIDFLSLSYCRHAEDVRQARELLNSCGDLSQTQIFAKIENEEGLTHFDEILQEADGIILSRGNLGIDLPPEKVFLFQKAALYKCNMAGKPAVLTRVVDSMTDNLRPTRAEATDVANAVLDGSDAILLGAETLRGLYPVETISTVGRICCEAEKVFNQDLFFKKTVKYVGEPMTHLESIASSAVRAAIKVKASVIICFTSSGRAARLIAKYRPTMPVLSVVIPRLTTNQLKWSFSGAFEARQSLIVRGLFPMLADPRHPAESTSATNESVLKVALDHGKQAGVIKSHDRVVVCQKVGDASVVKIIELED


Legend:
[1] = molecular target: T1, cytosolic pyruvate kinase 2 (cPK2, At5g56350) (Arabidopsis thaliana)
[2] = molecular target: T2, cytosolic pyruvate kinase 4 (cPK4, At2g36580) (Arabidopsis thaliana)
purified protein [3] = substrate: C=C(OP(=O)(O)O)C(=O)O; experiment: purified protein; format: biochemical, Arabidopsis thaliana; conditions: co-substrate ADP, 10 mM MgCl2, 50 mM KCl, 5% PEG 200, pH 7.5, 25 °C
purified protein [4] = substrate: Nc1ncnc2c1ncn2[C@@H]1O[C@H](COP(=O)(O)OP(=O)(O)O)[C@@H](O)[C@H]1O; experiment: purified protein; format: biochemical, Arabidopsis thaliana; conditions: co-substrate PEP, 10 mM MgCl2, 50 mM KCl, 5% PEG 200, pH 7.5, 25 °C

Molecule | Km (purified protein [3]) [µM] | kcat (purified protein [3]) [s⁻¹] | Km (purified protein [4]) [µM] | kcat (purified protein [4]) [s⁻¹] | further results
cytosolic pyruvate kinase 3 (cPK3) (from UniProt Q9FFP6 1-510) (enzyme) | – | – | – | – | specific pyruvate kinase activity (LDH-coupled assay, substrate saturating conditions) of a mixture of equal ratios of cPK2 and cPK3, compared to the single enzymes [1]: 20 % increase; specific pyruvate kinase activity (LDH-coupled assay, substrate saturating conditions) of a mixture of equal ratios of cPK4 and cPK3, compared to the single enzymes [2]: 20 % increase
cPK2 (Arabidopsis thaliana) (protein, full-length cDNA in pET16b, N-terminal His tag (6x in Results, 5x in Methods), E. coli BLR21, Ni-NTA; primer begins MAMIEQ) MAMIEQRPKTKIVCTLGPASRSVPMVEKLLRAGMNVARFNFSHGSHEYHQETLDNLHQAMLNTGILCAVMLDTKGPEIRTGFLKDGKPIQLKQGQEITISTDYDLKGDENTICMSYKKLAVDVNPGMVILCADGTISLLVLSCDKENGTVRCRCENSAMLGERKNVNLPGVVVDLPTLTEKDKEDIMQWGVPNQIDMIALSFVRKGSDLVQVRKLLGKHAKNILLMSKVENQEGVANFDDILVNSDAFMIARGDLGMEIPIEKIFLAQKVMIYKCNIQGKPVVTATQMLESMIKSPRPTRAEATDVANAVLDGTDCVMLSGETAAGAYPELAVRTMAKICVEAESTLDYGDVFKRIMLYSPVPMSPLESLASSAVRTANSARATLIMVLTRGGSTARLVAKYRPGMPILSVVVPEIKTDFFDWSCSDESPARHSLIFRGLIPVLYAGSARASHDESTEEAIEFATQYGKEKELCKTGDSVVALLRVGNASVIKILTVK | 760 | 3.05 | 30 | 3.05 | –
cPK3 (Arabidopsis thaliana) (protein, printed locus At5g56350 duplicates cPK2 (apparent misprint); primer begins MSNIDIE, unlike cPK2; full-length cDNA in pET16b, N-terminal His tag (6x/5x), E. coli BLR21, Ni-NTA) MSNIDIEGILKELPNDGRTPKTKIVCTLGPASRSVTMIEKLLKAGMNVARFNFSHGSHEYHQETLDNLRTAMQNTGILAAVMLDTKGPEIRTGFLKDGNPIQLKEGQEITITTDYDIKGDEKTISMSYKKLPVDVKPGNTILCADGSISLAVVSCDPNAGTVICRCENTAMLGERKNVNLPGVVVDLPTLTDKDVEDILKWGVPNNIDMIALSFVRKGSDLVNVRKVLGSHSKSIMLMSKVENQEGVLNFDEILRETDAFMVARGDLGMEIPIEKIFLAQKMMIYKCNLAGKPVVTATQMLESMIKSPRPTRAEATDVANAVLDGTDCVMLSGESAAGAYPEIAVKTMAKICIEAESSLDYNTIFKEMIRATPLPMSTLESLASSAVRTANKAKAKLIIVLTRGGTTAKLVAKYRPAVPILSVVVPVFTSDTFNWSCSDESPARHSLIYRGLIPVLGEGSAKATDSESTEEIIESALKSATEKGLCNHGDAVVALHRIGAASVIKICVVK | 170 | 2.4 | 140 | 2.4 | –
cytosolic pyruvate kinase 5 (cPK5, At3g52990) (enzyme) MHSSHLLLEEPIRMASILEPSKSSFFPALTKIVGTLGPKSRSVEALSGCLKAGMSVARFDFSWGDADYHQETLDNLKVAVRSTKKLCAVMLDTVGPELQVINKSEKAITLKADGLVTLTPNQDQEASSEVLPINFNGLAKAVKKGDTIFVGQYLFTGSETTSVWLEVDEVKGDDVICLSRNAATLAGSLFTLHSSQVHIDLPTLTEKDKEVISTWGVQNKIDFLSLSYCRHAEDVRQTREMLKKLGDLSQTQIFAKIENVEGLTHFDEILQEADGIILSRGNLGIDLPPEKVFLFQKAALYKCNMAGKPAVLTRVVDSMTDNLRPTRAEATDVANAVLDGSDAILLGAETLRGLYPVETISTVGRICAEAEKVFNQDLYFKKTVKYVGEPMTHLESIASSAVRAAIKVKASVIICFTSSGRAARLIAKYRPTMPVISVVIPRVKTNQLKWSFSGAFEARQSLIVRGLFPMLADPRHPAESTSATNESVLKVALDHGKHAGVIKSHDRVVVCQKVGDASVVKIIELED | – | – | – | – | specific pyruvate kinase activity (LDH-coupled assay, substrate saturating conditions) of a batch with equal ratios of cPK4 and cPK5, compared to cPK4 alone [2]: 180 % increase
cPK5 (Arabidopsis thaliana) (protein, full-length cDNA in pET16b, N-terminal His tag (6x in Results, 5x in Methods), E. coli BLR21, Ni-NTA; primer begins MHSSHL) MHSSHLLLEEPIRMASILEPSKSSFFPALTKIVGTLGPKSRSVEALSGCLKAGMSVARFDFSWGDADYHQETLDNLKVAVRSTKKLCAVMLDTVGPELQVINKSEKAITLKADGLVTLTPNQDQEASSEVLPINFNGLAKAVKKGDTIFVGQYLFTGSETTSVWLEVDEVKGDDVICLSRNAATLAGSLFTLHSSQVHIDLPTLTEKDKEVISTWGVQNKIDFLSLSYCRHAEDVRQTREMLKKLGDLSQTQIFAKIENVEGLTHFDEILQEADGIILSRGNLGIDLPPEKVFLFQKAALYKCNMAGKPAVLTRVVDSMTDNLRPTRAEATDVANAVLDGSDAILLGAETLRGLYPVETISTVGRICAEAEKVFNQDLYFKKTVKYVGEPMTHLESIASSAVRAAIKVKASVIICFTSSGRAARLIAKYRPTMPVISVVIPRVKTNQLKWSFSGAFEARQSLIVRGLFPMLADPRHPAESTSATNESVLKVALDHGKHAGVIKSHDRVVVCQKVGDASVVKIIELED | 50 | 6.68 | 340 | 6.68 | –
cytosolic pyruvate kinase 1 (cPK1, At5g08570) (enzyme) MSNIDIEGILKELPNDGRIPKTKIVCTLGPASRTVSMIEKLLKAGMNVARFNFSHGSHEYHQETLDNLRSAMHNTGILAAVMLDTKGPEIRTGFLKDGNPIQLKEGQEITITTDYDIQGDESTISMSYKKLPLDVKPGNTILCADGSISLAVLSCDPESGTVRCRCENSAMLGERKNVNLPGVVVDLPTLTDKDIEDILGWGVPNSIDMIALSFVRKGSDLVNVRKVLGSHAKSIMLMSKVENQEGVINFDEILRETDAFMVARGDLGMEIPIEKIFLAQKLMIYKCNLAGKPVVTATQMLESMIKSPRPTRAEATDVANAVLDGTDCVMLSGESAAGAYPEIAVKVMAKICIEAESSLDYNTIFKEMIRATPLPMSPLESLASSAVRTANKARAKLIIVLTRGGSTANLVAKYRPAVPILSVVVPVMTTDSFDWSCSDESPARHSLIYRGLIPMLAEGSAKATDSEATEVIIEAALKSATQRGLCNRGDAIVALHRIGAASVIKICVVK | – | – | – | – | specific pyruvate kinase activity (LDH-coupled assay, substrate saturating conditions) of a mixture of equal ratios of cPK1 and cPK2, compared to cPK2 alone [1]: 70 % increase; specific pyruvate kinase activity (LDH-coupled assay, substrate saturating conditions) of a mixture of equal ratios of cPK1 and cPK4, normalised to cPK4 alone [2]: 75 % increase
cPK1 (Arabidopsis thaliana) (protein, full-length cDNA in pET16b, N-terminal His tag (6x in Results, 5x in Methods), E. coli BLR21, Ni-NTA; primer begins MSNIDIEG) MSNIDIEGILKELPNDGRIPKTKIVCTLGPASRTVSMIEKLLKAGMNVARFNFSHGSHEYHQETLDNLRSAMHNTGILAAVMLDTKGPEIRTGFLKDGNPIQLKEGQEITITTDYDIQGDESTISMSYKKLPLDVKPGNTILCADGSISLAVLSCDPESGTVRCRCENSAMLGERKNVNLPGVVVDLPTLTDKDIEDILGWGVPNSIDMIALSFVRKGSDLVNVRKVLGSHAKSIMLMSKVENQEGVINFDEILRETDAFMVARGDLGMEIPIEKIFLAQKLMIYKCNLAGKPVVTATQMLESMIKSPRPTRAEATDVANAVLDGTDCVMLSGESAAGAYPEIAVKVMAKICIEAESSLDYNTIFKEMIRATPLPMSPLESLASSAVRTANKARAKLIIVLTRGGSTANLVAKYRPAVPILSVVVPVMTTDSFDWSCSDESPARHSLIYRGLIPMLAEGSAKATDSEATEVIIEAALKSATQRGLCNRGDAIVALHRIGAASVIKICVVK | 60 | 1.53 | 150 | 1.53 | –
cPK4 (Arabidopsis thaliana) (protein, full-length cDNA in pET16b, N-terminal His tag (6x in Results, 5x in Methods), E. coli BLR21, Ni-NTA; primer begins MHSSHL) MHSSHLLLEEPIRMTSILEPSKSSFFPALTKIVGTLGPKSRSVEVIAGCLKAGMSVARFDFSWCDADYHQETLENLKIAVKSTKKLCAVMLDTVGPELQVINKTEKAISLKADGLVTLTPSQDQEASSEVLPINFDGLAKAVKKGDTIFVGQYLFTGSETTSVWLEVEEVKGDDVICISRNAATLGGPLFTLHVSQVHIDMPTLTEKDKEVISTWGVQNKIDFLSLSYCRHAEDVRQARELLNSCGDLSQTQIFAKIENEEGLTHFDEILQEADGIILSRGNLGIDLPPEKVFLFQKAALYKCNMAGKPAVLTRVVDSMTDNLRPTRAEATDVANAVLDGSDAILLGAETLRGLYPVETISTVGRICCEAEKVFNQDLFFKKTVKYVGEPMTHLESIASSAVRAAIKVKASVIICFTSSGRAARLIAKYRPTMPVLSVVIPRLTTNQLKWSFSGAFEARQSLIVRGLFPMLADPRHPAESTSATNESVLKVALDHGKQAGVIKSHDRVVVCQKVGDASVVKIIELED | 170 | 4.0 | 70 | 4.0 | –
